Paper PMC8994484

Target: ofCP (Olindias formosa)
Test: SEC

stoichiometry N: 2
Substance: ofCP (natural protein)
